The subject of this data set is Saccharomyces cerevisiae. The experiment in a line: protein stability index of tFT-peptide fusion (C-terminal peptide) (PSI (0-1 scale)); higher = more stable (slower turnover). Conditions: temperature: 30 C. As for the experimental part:
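MPS profiling in S. cerevisiae of the yeast C-terminome library: the last 12 aa of each annotated ORF are fused to the C-terminus of a sfGFP-mCherry timer, after a GGGS linker. Cells are FACS-sorted into 8 mCherry/sfGFP bins and deep-sequenced. PSI runs from 0 (unstable) to 1 (stable); wild type and das1Δ backgrounds, two technical replicates each.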

Setting [1] is: genetic background: das1 deletion.

The values below come from the supplement of paper PMC10724198.

± gives the standard deviation of the averaged measurements.

Regarding EREVNPSARSLG [YLR184W C-terminal 12 aa], the protein stability index reads like this: under setting [1], 0.694 ± 0.028; (genetic background: wild type) 0.684 ± 0.013.
On the same counts, the results for ESKKTKGEELTL [ARG1 C-terminal 12 aa] are 0.6793 ± 0.0016 and 0.669 ± 0.015.
Regarding ESLSNEAALKAN [RPO31 C-terminal 12 aa], the protein stability index under setting [1] turned out to be 0.676 ± 0.027 and the protein stability index (genetic background: wild type) turned out to be 0.397 ± 0.017.
On the same counts, the results for ESPTEDSVPHAE [CSA1 C-terminal 12 aa] are 0.709 ± 0.018 and 0.687 ± 0.032.
The matching figures for ESSARRDRKEHI [TMA23 C-terminal 12 aa]: 0.679 ± 0.035 and 0.701 ± 0.041.
ETDSESEVESIM [SYG1 C-terminal 12 aa]: the protein stability index by setting is: under setting [1], 0.697 ± 0.036; (genetic background: wild type) 0.675 ± 0.025.
EVKVDKVVYEKE [VPS29 C-terminal 12 aa]: the protein stability index is, setting by setting: under setting [1], 0.683 ± 0.067; (genetic background: wild type) 0.725 ± 0.04.
As for EVSTEDTVHDEL [EUG1 C-terminal 12 aa], the protein stability index under setting [1] came to 0.675 ± 0.0097 and the protein stability index (genetic background: wild type) was 0.683 ± 0.041.
As for EYLQSMKTSINR [SFB2 C-terminal 12 aa], the protein stability index by setting is: under setting [1], 0.69 ± 0.024; (genetic background: wild type) 0.695 ± 0.024.
FARFITAIFHHI [MKC7 C-terminal 12 aa]: the protein stability index under setting [1] was 0.73 ± 0.019 and the protein stability index (genetic background: wild type) came to 0.153 ± 0.0061.
For the sequence FDALMNNDGDSD [TIF4632 C-terminal 12 aa], the protein stability index runs as follows: under setting [1], 0.68 ± 0.016; (genetic background: wild type) 0.6696 ± 0.0037.
FDDSSSVSSKSD [GPC1 C-terminal 12 aa]: the protein stability index reads like this: under setting [1], 0.717 ± 0.014; (genetic background: wild type) 0.695 ± 0.027.
Regarding FDRVRLLVDKIT [HIR3 C-terminal 12 aa], the protein stability index is, setting by setting: under setting [1], 0.683 ± 0.0076; (genetic background: wild type) 0.234 ± 0.0042.
FDSNVSVAVDER [SET5 C-terminal 12 aa]: the protein stability index reads like this: under setting [1], 0.699 ± 0.022; (genetic background: wild type) 0.651 ± 0.027.
Take FFLEECHRIGSK [HEM12 C-terminal 12 aa]: the protein stability index reads like this: under setting [1], 0.726 ± 0.015; (genetic background: wild type) 0.7467 ± 0.007.
As to FGGVRSPKMRRL [MRPS18 C-terminal 12 aa], the protein stability index is, setting by setting: under setting [1], 0.72 ± 0.017; (genetic background: wild type) 0.681 ± 0.042.
Sequence FGSNVNQQFNFN [SRP1 C-terminal 12 aa] displayed a protein stability index under setting [1] of 0.723 ± 0.0085 and a protein stability index (genetic background: wild type) of 0.719 ± 0.032.
Take FHHMLIFIILKL [PRM2 C-terminal 12 aa]: the protein stability index is 0.203 ± 0.013 under setting [1] and 0.193 ± 0.028 (genetic background: wild type).
In the case of FIVAEYIQQKKV [SRB4 C-terminal 12 aa], the protein stability index came to 0.694 ± 0.018 under setting [1] and 0.3321 ± 0.00069 (genetic background: wild type).
Regarding FKMCETEMQPIK [YGR201C C-terminal 12 aa], the protein stability index was determined as 0.7043 ± 0.0065 under setting [1] and 0.669 ± 0.013 (genetic background: wild type).
Turning to FLDDVLNGREII [YNL058C C-terminal 12 aa], the protein stability index is, setting by setting: under setting [1], 0.708 ± 0.011; (genetic background: wild type) 0.752 ± 0.015.
Consider FNNILTKEMQKI [CLD1 C-terminal 12 aa], for which the protein stability index by setting is: under setting [1], 0.701 ± 0.031; (genetic background: wild type) 0.717 ± 0.049.
With FNVTKKSLTNHS [CDS1 C-terminal 12 aa], the protein stability index under setting [1] turned out to be 0.6978 ± 0.0048 and the protein stability index (genetic background: wild type) came out at 0.742 ± 0.049.
Take FPVKSSPNAHTA [YLR334C C-terminal 12 aa]: the protein stability index by setting is: under setting [1], 0.707 ± 0.018; (genetic background: wild type) 0.687 ± 0.026.
In the case of FPWSHGTCIRGA [YOR376W C-terminal 12 aa], the protein stability index under setting [1] amounted to 0.696 ± 0.013 and the protein stability index (genetic background: wild type) stood at 0.688 ± 0.01.
Take FQREQVAKGGLL [CHL4 C-terminal 12 aa]: the protein stability index under setting [1] was found to be 0.717 ± 0.016 and the protein stability index (genetic background: wild type) worked out at 0.69 ± 0.057.
FRRRLGDRFKKD [MRX7 C-terminal 12 aa] came in with a protein stability index under setting [1] of 0.6895 ± 0.0044 and a protein stability index (genetic background: wild type) of 0.695 ± 0.017.
On to FSYIRSKQMQQK [MNE1 C-terminal 12 aa], for which the protein stability index is, setting by setting: under setting [1], 0.746 ± 0.031; (genetic background: wild type) 0.6666 ± 0.0065.
On to FTNALKNMYFSA [YJR037W C-terminal 12 aa], for which the protein stability index came out at 0.709 ± 0.0094 under setting [1] and 0.585 ± 0.019 (genetic background: wild type).
The matching figures for FVYERMKWNFGI [LEU5 C-terminal 12 aa]: 0.7059 ± 0.0044 and 0.275 ± 0.025.
As to FWHEVVVFPIPN [YDR015C C-terminal 12 aa], the protein stability index runs as follows: under setting [1], 0.717 ± 0.017; (genetic background: wild type) 0.716 ± 0.062.
With GAGVVAAAAMLL [TIR1 C-terminal 12 aa], the protein stability index runs as follows: under setting [1], 0.7182 ± 0.0061; (genetic background: wild type) 0.713 ± 0.016.
For the sequence GAGWSGFKKVFK [GYL1 C-terminal 12 aa], the protein stability index turned out to be 0.692 ± 0.013 under setting [1] and 0.722 ± 0.042 (genetic background: wild type).
GAHDDMDNGDDW [LAS17 C-terminal 12 aa]: the protein stability index was found to be 0.689 ± 0.01 under setting [1] and 0.663 ± 0.015 (genetic background: wild type).
Take GAIYVLQWANPT [YBR287W C-terminal 12 aa]: the protein stability index is, setting by setting: under setting [1], 0.667 ± 0.025; (genetic background: wild type) 0.662 ± 0.061.
In turn, GATEKRKCAKPF [CSL4 C-terminal 12 aa] displayed a protein stability index under setting [1] of 0.674 ± 0.033 and a protein stability index (genetic background: wild type) of 0.687 ± 0.029.
The matching figures for GDDDIDDDDDMI [TVP15 C-terminal 12 aa]: 0.691 ± 0.023 and 0.677 ± 0.023.
As to GEDEENTVDSQY [YOL131W C-terminal 12 aa], the protein stability index stood at 0.688 ± 0.015 under setting [1] and 0.6803 ± 0.0017 (genetic background: wild type).
Regarding “GEDVLEGGCLLI [YIR023C-A C-terminal 12 aa]”, the protein stability index is, setting by setting: under setting [1], 0.708 ± 0.051; (genetic background: wild type) 0.727 ± 0.057.
For GELSVDEKKKIY [ERV29 C-terminal 12 aa], the protein stability index by setting is: under setting [1], 0.6932 ± 0.00077; (genetic background: wild type) 0.657 ± 0.041.
On the same counts, the results for GFADLDNFMSSL [HAA1 C-terminal 12 aa] are 0.686 ± 0.039 and 0.689 ± 0.033.
Regarding GGFLSFGGGYDE [AIM25 C-terminal 12 aa], the protein stability index is 0.712 ± 0.034 under setting [1] and 0.726 ± 0.013 (genetic background: wild type).
As to GGFSTEFNSCDT [MLF3 C-terminal 12 aa], the protein stability index runs as follows: under setting [1], 0.719 ± 0.019; (genetic background: wild type) 0.721 ± 0.023.
The matching figures for GGGASSIVIEKI [ERG10 C-terminal 12 aa]: 0.697 ± 0.035 and 0.694 ± 0.011.
In the case of GGQNSPGDMAVA [YDL199C C-terminal 12 aa], the protein stability index is, setting by setting: under setting [1], 0.692 ± 0.011; (genetic background: wild type) 0.741 ± 0.068.
For GHNDGDINVWTL [CAF4 C-terminal 12 aa], the protein stability index amounted to 0.7185 ± 0.0052 under setting [1] and 0.7273 ± 0.0028 (genetic background: wild type).
On to GIDLNSIKWSGH [NFS1 C-terminal 12 aa], for which the protein stability index came to 0.718 ± 0.012 under setting [1] and 0.709 ± 0.012 (genetic background: wild type).
As for GINAGEIEIPEN [RPL12A C-terminal 12 aa], the protein stability index came to 0.692 ± 0.0082 under setting [1] and 0.698 ± 0.012 (genetic background: wild type).
As for GIPEEFKEFTEV [MND1 C-terminal 12 aa], the protein stability index is 0.7022 ± 0.0026 under setting [1] and 0.7181 ± 0.0035 (genetic background: wild type).
For GIPNLLLPPHLV [TRM112 C-terminal 12 aa], the protein stability index by setting is: under setting [1], 0.707 ± 0.014; (genetic background: wild type) 0.691 ± 0.007.
For GIVPGDCLQEYD [FUS1 C-terminal 12 aa], the protein stability index was 0.702 ± 0.0059 under setting [1] and 0.685 ± 0.016 (genetic background: wild type).
The matching figures for GKEHRFGLHIRS [DPH6 C-terminal 12 aa]: 0.6887 ± 0.0022 and 0.698 ± 0.026.
With GKLAEILKPVFQ [GRX2 C-terminal 12 aa], the protein stability index under setting [1] is 0.706 ± 0.011 and the protein stability index (genetic background: wild type) was found to be 0.677 ± 0.0068.
Consider GKQKQLLFHIGV [HEL2 C-terminal 12 aa], for which the protein stability index under setting [1] was determined as 0.6865 ± 0.0042 and the protein stability index (genetic background: wild type) came out at 0.718 ± 0.035.
The matching figures for GKQLLSPMGRAF [TKL2 C-terminal 12 aa]: 0.679 ± 0.022 and 0.6529 ± 0.0014.
On the same counts, the results for GLEHSDPFSTFY [DBF2 C-terminal 12 aa] are 0.71206 ± 0.0003 and 0.712 ± 0.025.
On the same counts, the results for GLNEVTRLIKGL [HTS1 C-terminal 12 aa] are 0.695 ± 0.011 and 0.641 ± 0.027.
On to GLRYDMVHKLIS [SLH1 C-terminal 12 aa], for which the protein stability index is 0.688 ± 0.025 under setting [1] and 0.212 ± 0.028 (genetic background: wild type).
For the sequence GMISKSLKIPKP [CHO1 C-terminal 12 aa], the protein stability index is 0.661 ± 0.0085 under setting [1] and 0.698 ± 0.0082 (genetic background: wild type).
GNIVSQDLLDLF [APL2 C-terminal 12 aa]: the protein stability index under setting [1] stood at 0.724 ± 0.034 and the protein stability index (genetic background: wild type) was found to be 0.7 ± 0.012.
On the same counts, the results for GPSVMCTLYLTF [ARE2 C-terminal 12 aa] are 0.5849 ± 0.0035 and 0.59105 ± 0.00058.
On to GQALLDQFAKFK [LSC1 C-terminal 12 aa], for which the protein stability index is, setting by setting: under setting [1], 0.721 ± 0.058; (genetic background: wild type) 0.687 ± 0.021.
In the case of GSNELLSILHRK [DCP2 C-terminal 12 aa], the protein stability index is, setting by setting: under setting [1], 0.73 ± 0.018; (genetic background: wild type) 0.694 ± 0.059.
For GSSVPLDLTLFT [VRP1 C-terminal 12 aa], the protein stability index stood at 0.728 ± 0.012 under setting [1] and 0.714 ± 0.0093 (genetic background: wild type).
The matching figures for GSVCFIMDYFTG [VPS62 C-terminal 12 aa]: 0.706 ± 0.013 and 0.677 ± 0.015.
Consider GSYATRAYGQKK [FDH1 C-terminal 12 aa], for which the protein stability index was determined as 0.694 ± 0.011 under setting [1] and 0.688 ± 0.018 (genetic background: wild type).
With GWDRLVEARSQI [EMW1 C-terminal 12 aa], the protein stability index amounted to 0.7268 ± 0.0039 under setting [1] and 0.708 ± 0.027 (genetic background: wild type).
